Source: patent US20180207278A1 (Amgen, published 2018)

Tests used:
[1] = target: T1, GM-CSF (immobilized on the SPR sensor chip); test: SPR (Biacore 3000, GM-CSF immobilized on CM5 chip); antibody 5.4 mg/ml in 20 mM acetate + 250 mM threonine after 14 days at 55 C
T1 construct: also called immobilized GM-CSF; Granulocyte-macrophage colony stimulating factor
Description: (§1) The surface plasmon resonance (SPR) method was established to determine the degree of antibody binding activity to immobilized GM-CSF (Biacore 3000/CM5 sensor chip/HBS-EP running buffer). The SPR method was qualified by performing a nine-point range test, from which precision (six replicate injections) and linearity (triplicate standard curves) were determined and tested.
(§2) […] Previous studies indicated stabilizing effects of: 20 mM acetate pH 5; 20 mM histidine pH 6; 250 mM glutamic acid; 250 mM threonine, 6% (w/v) sorbitol and 6% (w/v) mannitol. […] Antibody in 1×PBS was included as a control. At T0, T7 and T14 (days), samples were analyzed by SE-HPLC and SPR.

[2] = target: T1, GM-CSF (immobilized on the SPR sensor …); test: SPR (Biacore 3000, GM-CSF immobilized on CM5 chip); antibody 5.4 mg/ml in 1xPBS after 14 days at 55 C
Description: as §1, §2

[3] = target: T1, GM-CSF (immobilized on the SPR sensor …); test: SPR (Biacore 3000, GM-CSF immobilized on CM5 chip); antibody 5.4 mg/ml in formulations 5-16 of Table 1 (all with mannitol or sorbitol) after 14 days at 55 C
Description: as §1, §2

[4] = target: T1, GM-CSF (immobilized on the SPR sensor …); test: SPR (Biacore 3000, GM-CSF immobilized on CM5 chip); antibody 5.4 mg/ml in 20 mM histidine + 250 mM threonine after 14 days at 55 C
[5] = target: T1, GM-CSF (immobilized on the SPR sensor …); test: SPR (Biacore 3000, GM-CSF immobilized on CM5 chip); antibody 5.4 mg/ml in 20 mM acetate + 250 mM glutamic acid after 14 days at 55 C
Description: as §1, §2

[6] = target: T1, GM-CSF (immobilized on the SPR sensor …); test: SPR (Biacore 3000, GM-CSF immobilized on CM5 chip); antibody 5.4 mg/ml in 20 mM histidine + 250 mM glutamic acid after 14 days at 55 C
Description: as §1, §2

binding activity relative to T0 [1]: 26%
binding activity relative to T0 [2]: 62%
binding activity relative to T0 [3]: > 93%
binding activity relative to T0 [4]: 85%
binding activity relative to T0 [5]: 19%
binding activity relative to T0 [6]: 91%
B1: human monoclonal IgG1 antibody that binds to and neutralizes human GM-CSF (antibody, V domains shown)
VH: QVQLVQSGAEVKKPGASVKVSCKAFGYPFTDYLLHWVRQAPGQGLEWVGWLNPYSGDTNYAQKFQGRVTMTRDTSISTAYMELSRLRSDDTAVYYCTRTTLISVYFDYWGQGTMVTVSS
VL: DIQMTQSPSSVSASVGDRVTIACRASQNIRNILNWYQQRPGKAPQLLIYAASNLQSGVPSRFSGSGSGTDFTLTINSLQPEDFATYYCQQSYSMPRTFGGGTKLEIKR
notes: also called the antibody; anti-GM-CSF antibody
